Measurements as given in article PMC11953334, “Substrates bind to residues lining the ring of asymmetrically engaged bacterial proteasome activator Bpa” (Nature Communications, 2025).

B1: bacterial proteasome activator Bpa, full-length, wild-type (natural protein)
chain: MVIGLSTGSDDDDVEVIGGVDPRLIAVQENDSDESSLTDLVEQPAKVMRIGTMIKQLLEEVRAAPLDEASRNRLRDIHATSIRELEDGLAPELREELDRLTLPFNEDAVPSDAELRIAQAQLVGWLEGLFHGIQTALFAQQMAARAQLQQMRQGALPPGVGKSGQHGHGTGQYL
notes: also called wild-type Bpa ring; Bpa12; copies: 12
B2: truncated Bpa variant lacking the flexible N- and C-terminal segments (Bpa36-139) (domain or fragment)
chain: SLTDLVEQPAKVMRIGTMIKQLLEEVRAAPLDEASRNRLRDIHATSIRELEDGLAPELREELDRLTLPFNEDAVPSDAELRIAQAQLVGWLEGLFHGIQTALFA
notes: Dodecameric ring; also called substrate-captured Bpa; copies: 12

Legend:
20S CP α-subunit = target: T1, 20S CP α-subunit (M. tuberculosis H37Rv, UniProt P9WHU1 1-248); assay: cryo-EM structure; conditions: both partners purified
T1 construct: also called proteasomal α-subunits; α-ring

cross-linking + SEC = target: the molecule itself; assay: cross-linking + SEC
negative stain EM = target: the molecule itself; assay: negative stain EM

T1 sequence (P9WHU1 whole entry): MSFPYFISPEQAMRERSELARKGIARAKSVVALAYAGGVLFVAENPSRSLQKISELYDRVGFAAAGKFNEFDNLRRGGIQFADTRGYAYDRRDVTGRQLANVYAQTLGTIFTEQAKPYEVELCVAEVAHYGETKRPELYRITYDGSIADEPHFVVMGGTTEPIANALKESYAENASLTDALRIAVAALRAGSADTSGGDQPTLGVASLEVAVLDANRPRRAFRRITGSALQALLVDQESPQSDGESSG

Row | Binder | binding result (20S CP α-subunit) | stoichiometry N (cross-linking + SEC) | stoichiometry N (negative stain EM)
1 | B1 | binds | – | –
2 | B2 | – | 12 | 24
